The subject of this data set is Bacillus subtilis DB104 (SP-AmyQ fusion secretion). Kind of data set: AmyQ secretion efficiency, weighted average sort bin (1 = best secretion, 10 = worst) (bin number (weighted average, 1-10)); higher = lower secretion efficiency. In outline: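 With fluorescein-starch as substrate, a B. subtilis DB104 library expressing mature AmyQ fused to designed signal peptides (integrated at amyE) was encapsulated at about 0.3 cells per ~65 nL alginate bead. After about 13 h at room temperature, beads were nile red stained, and occupied beads were sorted by large-particle flow cytometry into 10 equally populated bins by green/red fluorescence ratio. Illumina sequencing of the amplicons in each bin was used to calculate the secretion score, which is the read-frequency-weighted average bin number, normalised to beads per bin, with low-abundance sequences left out.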

In turn, MLKKKWMVGLLAGCLAAGGFSYNAFITEN came in with an AmyQ secretion efficiency of 6.43.

Sequence MLKKKWMVGLLAGCLAAGGFSYNAFKTEN had an AmyQ secretion efficiency of 5.95. For MLKKKWMVGLLAGCLAAGGFSYNAFLTEN, the AmyQ secretion efficiency was 6.4. Regarding MLKKKWMVGLLAGCLAAGGFSYNAFMTEN, the AmyQ secretion efficiency worked out at 6.25. With MLKKKWMVGLLAGCLAAGGFSYNAFNTEN, the AmyQ secretion efficiency worked out at 6.56. The figure for MLKKKWMVGLLAGCLAAGGFSYNAFPTEN is 5.71. Turning to MLKKKWMVGLLAGCLAAGGFSYNAFQTEN, the AmyQ secretion efficiency turned out to be 6.95.

As to MLKKKWMVGLLAGCLAAGGFSYNAFRTEN, the AmyQ secretion efficiency was found to be 5.68.

For MLKKKWMVGLLAGCLAAGGFSYNAFSTEN, the AmyQ secretion efficiency came to 6.06. In turn, MLKKKWMVGLLAGCLAAGGFSYNAFTTEN had an AmyQ secretion efficiency of 6.95. The figure for MLKKKWMVGLLAGCLAAGGFSYNAFVTEN is 7.21. Sequence MLKKKWMVGLLAGCLAAGGFSYNAFWTEN gave an AmyQ secretion efficiency of 6.56.

MLKKKWMVGLLAGCLAAGGFSYNAFYTEN: the AmyQ secretion efficiency was 6.38. Regarding MLKKKWMVGLLAGCLAAGGFSYNCFATEN, the AmyQ secretion efficiency stood at 3.91. Consider MLKKKWMVGLLAGCLAAGGFSYNDFATEN, for which the AmyQ secretion efficiency came out at 5.83. In turn, MLKKKWMVGLLAGCLAAGGFSYNEFATEN had an AmyQ secretion efficiency of 6.42. The figure for MLKKKWMVGLLAGCLAAGGFSYNFFATEN is 6.27; for MLKKKWMVGLLAGCLAAGGFSYNGFATEN it is 6.08; for MLKKKWMVGLLAGCLAAGGFSYNGSFVAFATEN it is 3.96. The figure for MLKKKWMVGLLAGCLAAGGFSYNHFATEN is 6.62. With MLKKKWMVGLLAGCLAAGGFSYNKFATEN, the AmyQ secretion efficiency is 7.42. The same measure for MLKKKWMVGLLAGCLAAGGFSYNLFATEN: 5.92; for MLKKKWMVGLLAGCLAAGGFSYNMFATEN: 6.41; for MLKKKWMVGLLAGCLAAGGFSYNNFATEN: 6.75. The same measure for MLKKKWMVGLLAGCLAAGGFSYNQFATEN: 6.91; for MLKKKWMVGLLAGCLAAGGFSYNRFATEN: 6.33; for MLKKKWMVGLLAGCLAAGGFSYNSFATEN: 5.59. MLKKKWMVGLLAGCLAAGGFSYNSPPFFFGAAFATEN displayed an AmyQ secretion efficiency of 5.86. The same measure for MLKKKWMVGLLAGCLAAGGFSYNTFATEN: 5.24. With MLKKKWMVGLLAGCLAAGGFSYNVFATEN, the AmyQ secretion efficiency was found to be 5.37.

With MLKKKWMVGLLAGCLAAGGFSYNWFATEN, the AmyQ secretion efficiency was 6.53. The same measure for MLKKKWMVGLLAGCLAAGKKKYNAFATEN: 7.66; for MLKKKWMVGLLAGCLAAGRKKKKKAFATEN: 7.31; for MLKKKWMVGLLAGCLAAGSAGFSYNAFATEN: 4.95.

MLKKKWMVGLLAGCLAAGTTSAAFTFFTGFSYNAFATEN came in with an AmyQ secretion efficiency of 7.04. As to MLKKKWMVGLLAGCLAAGVALALSGFSYNAFATEN, the AmyQ secretion efficiency amounted to 5.02. The sequence MLKKKWMVGLLAGCLAGFSYNAFATEN registered an AmyQ secretion efficiency of 5.96. The same measure for MLKKKWMVKKKRRCKAAGGFSYNAFATEN: 7.54; for MLKKKWMVKRLAGCLAAGGFSYNAFATEN: 7.03. Consider MLKKKWMVRRRKGCLAAGGFSYNAFATEN, for which the AmyQ secretion efficiency came out at 7.58. The figure for MLKKKWVGLLAGCLAAGGFSYNAFATEN is 4.85; for MLKKTILAAFILVGSTLGAFSFSSDASAKHV it is 2.16. As to MLKKVILAAFILVGSTLGAFSFSSDASAARK, the AmyQ secretion efficiency was determined as 2.12. The sequence MLKKVILAAFILVGSTLGEDSFSSDASAKHV had an AmyQ secretion efficiency of 4.32.

The sequence MLKKVILAAFILVGSTLGRKSFSSKASAKHV showed an AmyQ secretion efficiency of 6.14. The same measure for MLKKVILAAFILVGSTLGRRKRKSRASAKHV: 5.28; for MLKKVKRAAFILVGSTLGAFSFSSDASAKHV: 1.33; for MLKKVKRRRFILVGSTLGAFSFSSDASAKHV: 7.34. The figure for MLKKVRKRRKKLVGSTLGAFSFSSDASAKHV is 6.7; for MLKNRILALFVLSLGLLSFMVTPVSAASK it is 1.67; for MLKRLIAPMLLSAASLAFFAMSGSAQAAAY it is 3.75. The same measure for MLKRTSFVSLFISSAVLLSILLPSGQAHAQSA: 1.67; for MLKRTSFVSSGKYTTAVLLSILLPSGQAHAQSA: 2.65; for MLKRTSFVSSLFIFMAVLLIILTLPSGQAHAQSA: 1.9.

As to MLKRTSFVSSLFISSAVLLLPSGQAHAQSA, the AmyQ secretion efficiency stood at 1.64.

MLKRTSFVSSLFISSAVLLSILEDDDDDAHAQSA returned an AmyQ secretion efficiency of 5.08. The same measure for MLKRTSFVSSLFISSAVLLSILKKKGQAHAQSA: 7. The same measure for MLKRTSFVSSLFISSAVLLSILLGSGQAHAQSA: 2.06; for MLKRTSFVSSLFISSAVLLSILLIASTAHAQSA: 3.17. Sequence MLKRTSFVSSLFISSAVLLSILLPSGQAHADDD came in with an AmyQ secretion efficiency of 4.33. The figure for MLKRTSFVSSLFISSAVLLSILLPSGQAHAQKR is 2.41; for MLKRTSFVSSLFISSAVLLSILLPSGQAHARKR it is 3.12.

MLKRTSFVSSLFISSAVLLSILLPSGQGHAQSA yielded an AmyQ secretion efficiency of 1.31. The same measure for MLKRTSFVSSLFISSAVLLSILLPSGQIHAQSA: 2.68.

Consider MLKRTSFVSSLFISSAVLLSILLPSGQLHAQSA, for which the AmyQ secretion efficiency was 1.71.

MLKRTSFVSSLFISSAVLLSILLPSGQTHAQSA: the AmyQ secretion efficiency amounted to 1.61. MLKRTSFVSSLFISSAVLLSILLPSGQVHAQSA showed an AmyQ secretion efficiency of 1.69. The same measure for MLKRTSFVSSLFISSAVLLSILRRKRRRAHAQSA: 7.6; for MLKRTSFVSSLFISSAVLLSILTPDGQAHAQSA: 1.39; for MLKRTSFVSSLKKSSAVLLSILLPSGQAHAQSA: 3.11. The sequence MLKRTSFVSSLRRKRKKLLSILLPSGQAHAQSA gave an AmyQ secretion efficiency of 6.99. The figure for MLKRTSFVSSQGQGSRTLLSILLPSGQAHAQSA is 7.6. The same measure for MLKRTSFVSSSFISSAVLLSILLPSGQAHAQSA: 2.16; for MLKRTSFVSSSSLFISSAVLLSILLPSGQAHAQSA: 1.71. The figure for MLKRTSLFISSAVLLSILLPSGQAHAQSA is 2.05. Take MLLGKILLSSALSLGMLVSAAPVLATSS: the AmyQ secretion efficiency is 6.9. The figure for MLLKWMSGLLLVAVGFSFTQVMVHAGET is 5.02; for MLLNLAAGLTASAIVGTTLVVTPAEAATI it is 6.11.

Regarding MLMKVILAAFILVGSTLGAFSFSSDASAKHV, the AmyQ secretion efficiency came out at 2. MLMLCLWFTVFSLFLVLLPGKALGAVD came in with an AmyQ secretion efficiency of 5.08. With MLMLLSTLLIGIMLLTFAPSAFAKQD, the AmyQ secretion efficiency was 4.38. MLMLWNSLALCGLALTLAPCAQAAEP: the AmyQ secretion efficiency was 2.76. Take MLMSIALTLCPAIVGSLLFFTAPASAHVS: the AmyQ secretion efficiency was found to be 4.17. Consider MLNGIISFLLVSFVLFFALSTGITGVQAAPA, for which the AmyQ secretion efficiency was found to be 3.09.

MLRITINIITMFIAAAVISLTGTAEAAEK came in with an AmyQ secretion efficiency of 3.59.

MLSIWIGMLAAAVLLLMVPKVSLADAA yielded an AmyQ secretion efficiency of 6.86.

MLSMNLWISLLFALTLIFTMAFSNMSAQAAGK registered an AmyQ secretion efficiency of 1.93. The same measure for MLSSKWMVGLLAGCLAAGGFSYNAFATEN: 3.83.

In turn, MLTFLIGAGVAAVILSGWFIADHQTHSQEM had an AmyQ secretion efficiency of 6.55. As to MLTFLWMVGLLAGCLAAGGFSYNAFATEN, the AmyQ secretion efficiency was determined as 7.84.

In turn, MLTINLLTIYIMLLGLIAWFPGAAQAEEK gave an AmyQ secretion efficiency of 4.46.

In turn, MLTKRGRYYYRTLLGLIAWFPGAAQAEEK displayed an AmyQ secretion efficiency of 9.36. As to MLTKRLLLTIYIMLLGLIAWFPGAAQAEEK, the AmyQ secretion efficiency turned out to be 2.22.

Take MLTKRLLTIYIMLLGLIAWFPGAAQAAED: the AmyQ secretion efficiency turned out to be 2.99. The figure for MLTKRLLTIYIMLLGLIAWFPGAAQAAKK is 4.2; for MLTKRLLTIYIMLLGLIAWFPGAAQAASK it is 1.8; for MLTKRLLTIYIMLLGLIAWFPGAAQAATP it is 2.42. MLTKRLLTIYIMLLGLIAWFPGAAQAEDE registered an AmyQ secretion efficiency of 3.66. Sequence MLTKRLLTIYIMLLGLIAWFPGAAQAKRK came in with an AmyQ secretion efficiency of 6.07.

Turning to MLTKRLLTIYIMLLGLIAWFPGAAQCEEK, the AmyQ secretion efficiency amounted to 2.82. Consider MLTKRLLTIYIMLLGLIAWFPGAAQGEEK, for which the AmyQ secretion efficiency was determined as 2.56. The same measure for MLTKRLLTIYIMLLGLIAWFPGAIQAEEK: 2.08; for MLTKRLLTIYIMLLGLIAWFPGALQAEEK: 2.66. The same measure for MLTKRLLTIYIMLLGLIAWFPGASQAEEK: 4.32; for MLTKRLLTIYIMLLGLIAWFPGATVPAQAEEK: 2.86. The figure for MLTKRLLTIYIMLLGLIDDDPGAAQAEEK is 9.93; for MLTKRLLTIYIMLLGLIFLVALAWFPGAAQAEEK it is 4.8.

The values above are taken from the supplement of paper PMC9942255.
